Reference: patent US20200002405A1 (ADMINISTRATORS OF THE TULANE EDUCATIONAL FUND, published 2020)
Where two headings read alike, the source gives them in different places.

B1: 36.9F (antibody, V domains shown)
VH: EVQLVQSGGGLVKAGGSLKLSCGASGFTFSSYSMSWVRQAPGKGLEWVSYISSGGSSIHYADSVKGRFTISRDNAKNSLYLQMKNLRVDDTGRYYCVRDPRSGISGRYGMDVWGQGTTVTVSS
VL: DIVMTQSPDSLAVSLGERATINCKSSQTVLFTSYYVAWYQQKPGQPPKLLFSGASSRESGVPDRFSAGGSGTDFYLTINSLQAEDVADYYCQQYHTPPFTFGGGTKLEIRR
B2: 10.4B (antibody)
VH: DQVQLVQSGGGVVQPGRSLRVSCVTSGFNFRAYGMHWVRQIPGKGLEWVADIWSAETNRHYADSVKGRFTISRDNSKSTLYLQMNSLRAEDTGVYFCAKARPGYDYVVDLWGQGTLVIVSSASTKGPSVFPLAPCSRSTSGGTAALGCLVKDYFPEPVTVSWNSGALTSGVHTFPAVLQSSGL
VL: DEIVLTQSPSSLSASVGDRVTITCRASRDINTYLGWFQQRPGKAPKSLIYGASNLQNGVPSRFSGSGSGTYFTLTINGLQTEDFATYYCQQYSIYPLSLGGGTKADMKRTVAAPSVFIFPPSDEQLKSGTASVVCLLNNFYPREAKVQWKVDNALQSGNSQESVTEQDSKDSTYSLSSTLTLSKADYEKHKVYACEVTHQGLSSP
B3: 37.2D (antibody, V domains shown)
VH: EVQLVQSGAEVKKPGASVKVSCKASGYTFTKYGISWVRQAPGQGLEWMGWISAFNGYTRYGQRFQGKVTMTTDTSTNTASLEVRTLTSNDTAVYYCARQYPDQYSSSGWPRLFAMDVWGQGTTVIVSP
VL: ETTLTQSPATLSVSPGETATLSCRASQNVINNLAWYQQKPGQAPRLLIYGASTRATGIPARFSGSGSGTEFTLTISSMQSEDFAVYYCQQYNDWPRSFGQGTRLDIRR
B4: 25.6A (antibody, V domains shown)
VH: QVQLQESGGGLVKAGGSLRLSCAASGFMFERYSLHWVRQTPGKGLEWVSSISSLSGSHINYADSVKGRFTISRDNAKNSLSLQMNSLRVEDTAIYYCARDRRSGSSPVPLDVWGQGTTVTVSS
VL: DLPVLTQPASVSGSPGQSITISCTGTSSDVGAYNYVSWYQQHPGKAPKLIIYEVKIRPSGVSNRFSGSKSGNTASLTISGLQAEDEADYFCSSYSTNSPWVFGGGTKVTVLR
B5: 9.8A (antibody, V domains shown)
VH: EVQLVQSGGRLVQPGGSLRLSCVASGFTFSSHAMSWVRQAPGKGLEWVSGFSGSSGTTKYADSVKGRFTISRDNSKKTLYLQMNSLRAEDTAVYYCAKGFSPFRGVQFPYFDYWGQGTLVTVSS
VL: DIVMTQSPSTLSASVGDRVTITCRASQSIDRWLAWYQQKPGKAPKLLIYQASSLERGVPSRFSGSGSGTEFTLTISSLQPDDFATYYCQQYNGYPLTFGGGTKVEIKR
B6: 18.5C (antibody)
VH: DEVQLVESGGGLVRPGGSLRLSCAAAGFTFKSYSMNWVRQAPGRGLEWVSSITSGGSKTYYADVVKGRFTVSRDNAKQSLYLQMNSLRAEDTAIYFCARSLHSTSQPSYMDVWGRKITVIVSSASTKGPSVFPLAPSSKSTSGGTAALGCLVKDYFPEPVTVSWNSGALTSGVHTFPAVLQSSGLYSLSSVVTVPSSSLGTQTYICNVNHKPSNTKVDKRVEPKSCDKTHTCPPCPAPELLGGPSVFLFPPKPKDTLMISRTPEVTC
VL: DDIQMTQSPGTLSLSPGERATLSCRASQSVISYYVAWYQHKGGQAPRLLIYGASSRATGVPDRFSGSGSGTDFTLTISSLEPEDFALYYCQYYGSSPLWAFGQGTKVEIKRTVAAPSVFIFPPSDEQLKSGTASVVCLLNNFYPREAKVQWKVDNALQSGNSQESVTEQDSKDSTYSLSSTLTLSKADYEKHKVYACEVTHQGLSSPVTKSFNRGEC
B7: 8.11G (antibody, V domains shown)
VH: QVQLQESGPGLVKPSETLSLTCSISGVSTRNYYWSWIRQSPGKGLEWIGYIFNIGTTNYNPSLKSRLTISVDTSKNQFSLKITSVTAADTAVYYCASGFEYGDYTFDYWGQGTPVTVSS
VL: EIVLTQSPATLSVSPGGRASLSCRASQSIGDKLSWYQQKPGQAPRLVIYGAYTRATDISPRFSGSRSGTDFNLTISRMQSGDFAVYFCQQYENWPRTFGQGTKLEIKR
B8: 25.10C (antibody, V domains shown)
VH: QVQLQESGGGLVKPGGSLRLSCTASGFNFNKYNMNWVRQAPGKGLEWVSSISALSTYIYYADSLKGRFTVSRDNAKNSLFLQMNSLRDDDTAVYYCAREIRRASTWSADLWGRGTLVTVSS
VL: DIQMTQSPSSLSASVGDRVIITCRASQSISSSLNWYQQKPGKAPKLLIYAAVNLETGVPSRFSGSGFGTDFTLAISNVQPEDFATYYCQQSDTRTFGRGTKLDVKR
B9: 19.7E (antibody, V domains shown)
VH: EVQLVESGGGLVRPGGSLRLSCAASGFSFSSYSMHWVRHVPGKGLVWVSYINSDGSTKIYADSVKGRFSISRDNAKNKLYLQMDSLRVEDTAVYSCVRLVHYDWSPFVWGQGTLVTVSS
VL: EIVLTQSPSTLSASVGDRVTITCRASQSINNWLAWYQEKPGKAPKLLINKASSLESGVPSRFSGSGSGTEFTLTITSLQPDDFATYYCQQYNSNSWTFGQGTKVDMKR
B10: NE13 (antibody, V domains shown)
VH: EVQLVESGGGLVKPGGSLRLSCVASGFTFSSYSMNWVRQAPGKGLEWVSSISSGSSYIEYADSVKGRLTISRDNAKKSLYLQLNSLRAEDTAVYYCARHTARIDSYHGMDVWGQGTTVTVSS
VL: ETTLTQSPGTLSLSPGERATLSCRASQSVSSTYLAWYQQKPGQSPRLLIYGASSRATGIPDRFSGSGSGTQFTLTINRLEPEDFAVYYCQQFGSPWTFGQGTKVEIKR

Legend:
[1] = target: T1, LASV Josiah (lineage IV) glycoprotein, full-length GP (Lassa virus, Josiah strain, UniProt P08669 2-491); assay: cell-based or functional assay
T1 sequence: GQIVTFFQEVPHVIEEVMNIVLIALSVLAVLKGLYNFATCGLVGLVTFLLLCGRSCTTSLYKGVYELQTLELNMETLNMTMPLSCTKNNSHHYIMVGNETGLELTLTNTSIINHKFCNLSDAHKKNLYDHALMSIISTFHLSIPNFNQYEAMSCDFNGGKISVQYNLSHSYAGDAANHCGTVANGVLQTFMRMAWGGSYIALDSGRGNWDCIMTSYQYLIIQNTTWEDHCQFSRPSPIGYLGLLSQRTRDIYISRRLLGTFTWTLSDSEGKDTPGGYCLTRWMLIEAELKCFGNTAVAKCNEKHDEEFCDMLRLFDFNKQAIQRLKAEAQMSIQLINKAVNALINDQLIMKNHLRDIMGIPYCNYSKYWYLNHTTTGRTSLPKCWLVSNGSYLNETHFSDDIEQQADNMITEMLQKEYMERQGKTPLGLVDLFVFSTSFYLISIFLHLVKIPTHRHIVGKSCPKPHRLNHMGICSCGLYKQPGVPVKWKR

[2] = target: LASV 237 (lineage III) glycoprotein (Lassa virus, strain 237); assay: cell-based or functional assay
[3] = target: LASV A19 (lineage II) glycoprotein (Lassa virus, strain A19); assay: cell-based or functional assay
[4] = target: LASV Pinneo (lineage I) glycoprotein (Lassa virus, strain Pinneo); assay: cell-based or functional assay
[5] = target: T1, LASV Josiah (lineage IV) glycoprotein, …; assay: cell-based or functional assay; remark: listed apart in the source
LCMV WE strain GP [6] = target: T2, LCMV WE strain GP (LCMV, WE strain, UniProt P07399 2-498); assay: immunofluorescence, 293T cells transfected with GP plasmid
T2 construct: whole, on cells
T2 sequence: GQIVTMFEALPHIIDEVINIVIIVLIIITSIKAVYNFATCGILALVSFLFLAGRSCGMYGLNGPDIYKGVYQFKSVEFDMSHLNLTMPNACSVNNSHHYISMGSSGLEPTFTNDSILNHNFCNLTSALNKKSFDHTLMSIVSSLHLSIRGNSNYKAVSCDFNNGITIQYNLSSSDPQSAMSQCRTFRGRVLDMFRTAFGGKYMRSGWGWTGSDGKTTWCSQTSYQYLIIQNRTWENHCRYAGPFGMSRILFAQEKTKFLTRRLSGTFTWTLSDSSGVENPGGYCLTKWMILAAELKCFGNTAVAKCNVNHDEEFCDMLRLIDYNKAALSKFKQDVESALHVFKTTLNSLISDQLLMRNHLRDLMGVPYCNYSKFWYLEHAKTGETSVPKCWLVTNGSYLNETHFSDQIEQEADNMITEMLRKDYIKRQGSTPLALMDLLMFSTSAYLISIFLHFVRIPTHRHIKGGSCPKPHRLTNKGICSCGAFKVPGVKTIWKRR

LCMV WE strain GP [7] = target: T2, LCMV WE strain GP; assay: cross-reactivity, immunofluorescence on GP-transfected 293T cells

Binder | IC50 (neutralization) [1] [µg/mL] | IC80 (neutralization) [1] [µg/mL] | IC50 (neutralization) [2] [µg/mL] | IC80 (neutralization) [2] [µg/mL] | IC50 (neutralization) [3] [µg/mL] | IC80 (neutralization) [3] [µg/mL] | IC50 (neutralization) [4] [µg/mL] | IC80 (neutralization) [4] [µg/mL] | IC50 (neutralization) [5] [µg/mL] | IC80 (neutralization) [5] [µg/mL] | binding result (LCMV WE strain GP [6]) | binding result (LCMV WE strain GP [7])
B1 | 18 | > 20 | 4.69 | 19.4 | 13 | > 20 | 6.98 | > 20 | 0.57 | 2.23 | – | –
B2 | > 20 | > 20 | > 20 | > 20 | > 20 | > 20 | > 20 | > 20 | > 10 | > 10 | no binding | –
B3 | 0.559 | 1.98 | 0.256 | 0.844 | 0.469 | 1.15 | 0.537 | 1.86 | 0.137 | 0.26 | – | binds
B4 | 0.743 | 2 | 0.169 | 0.603 | 0.483 | 3.51 | 1.83 | 3.11 | 0.188 | 0.3 | – | –
B5 | 1.31 | 2.42 | 0.193 | 0.494 | 0.15 | 0.527 | 1 | 2.59 | 0.139 | 0.253 | – | –
B6 | 1.94 | 3.98 | 0.621 | 3.23 | 1.2 | 4.63 | 6.11 | 12.2 | > 10 | > 10 | – | –
B7 | 0.361 | 1.74 | 1.17 | 3.64 | 1.48 | 4.59 | 3.25 | 10.5 | > 10 | > 10 | no binding | –
B8 | – | – | – | – | – | – | – | – | – | – | no binding | –
B9 | – | – | – | – | – | – | – | – | – | – | no binding | –
B10 | – | – | – | – | – | – | – | – | – | – | no binding | –
